In US20240207380A1, “NOVEL PEPTIDE TARGETING DENDRITIC CELLS, AND COMPOSITION FOR TREATING CANCER COMPRISING SAME” (INDUSTRY FOUNDATION OF CHONNAM NATIONAL UNIVERSITY, priority 2021, published 2024):
“Also recorded” adds a separate entry of the source.

Legend:
TLR5 = biological target: T1, TLR5 (Homo sapiens, UniProt O60602); format: cell-based; details: HEK-Blue hTLR5 cells
T1 construct: host or cells: HEK-Blue hTLR5 cells (HEK293-derived reporter line, own knowledge: stably transfected with the human TLR5 gene and an NF-kB-inducible SEAP reporter)
Protocol: Also, the EC50 was calculated using triplicate OD 620 nm values for each protein concentration over a wide range of protein concentrations (0.0375 nM-19.29 nM at the AAT Bioquest website).

[1] = test system: Bone marrow-derived dendritic cells (BMDCs); assay: Cellular uptake of EF and DEF in BMDCs (flow cytometry); format: cell-based, C57BL/6 mice; details: 2 hours, anti-FlaB staining, FACS gated on CD11c+
Protocol: Cells treated with PBS alone were used as a negative control. After incubation, the cells were washed twice with cold 1×PBS containing 3% FBS and then stained with anti-mouse CD11c^+ antibody (eBioscience, Clone: N418, 25-0114-82) for 1 hour at 4° C. and fixed with 4% paraformaldehyde (T&I, BPP-9004) for 10 minutes at room temperature. The cells were permeabilized using a permeabilization kit according to the manufacturer's instructions (Invitrogen, 00-8333-56) and stained with anti-FlaB antibodies, followed by FACS analysis by gating upon the CD11c^+ population. The results are depicted in FIG. 14.

BMDCs or RAW264.7 cells = assay: Intracellular distribution of EF and DEF by confocal microscopy; format: cell-based; details: 20 μg/ml, 2 hours
Protocol: After incubation, the cells were harvested, washed, fixed with 100% methanol for 15 minutes at room temperature, and stained with anti-mouse CD11c^+ APC-conjugated antibody and DAPI, a nuclear stain, for 1 hour at room temperature. After two washes with cold 1×PBS, the intercellular distributions of the peptides within the dendritic cells (CD11c^+) were determined by confocal microscopy (LSM800).

[2] = In vivo distribution of FNR675-labeled peptides in draining inguinal lymph nodes; design: species or system  mice; details: subcutaneous
Protocol: Next, the conjugated proteins were quantitatively determined from the calibration curve of the FNR675-NHS ester using a UV-Vis spectrophotometer (UV-2700, Shimadzu, Japan).
The fluorescence signals in the draining lymph nodes were determined and are depicted in FIG. 16. In addition, six hours after injection, the draining inguinal LN (iLN) cells were prepared, and then in vivo DC-targeting was determined by FACS analysis gating upon CD11c^+ cell population, and the results are depicted in FIG. 17.

TC-1 cells [3] = assay: Antitumor efficacy of peptides in TC-1 tumor-bearing mice (survival, tumor volume); format: in vivo, C57BL/6 mice
Protocol: Female SPF C57BL/6 mice 7 to 8 weeks old were purchased from ORIENT (Seongnam-si, Gyeonggi-do, Korea). TC-1 cells were cultured in RPMI 1640 medium supplemented with 10% heat-inactivated FIBS, 100 units/ml penicillin, and 100 μg/ml streptomycin at 37° C. under 5% CO2. Tumors were established in mice by subcutaneous injection of 5×10^4 TC-1 cells in 100 μl of PBS into the right mid-flank of each mouse. […] Tumor growth was monitored every three days. The tumor volume was calculated with formula V=(tumor length)×(tumor width)×(tumor height)/2.
The tumor-bearing mice were administered the all-in-one vaccine of the present disclosure as in Example 5 and measured for survival rate and tumor volume in the same manner. For a positive control, a group of mice was immunized with HPV16 E7 CTL peptide (amino acid 49-57: […]), known as a cytotoxic T lymphocyte (CTL)-inducing peptide.

[4] = test system: Bone marrow-derived dendritic cells (BMDCs); assay: Antigen-presenting cell activation (CD80 and CD86 on BMDC surface); format: cell-based, C57BL/6 mice; details: 0.5 μg/ml, 24 hours
Description: The cells were stained on ice with fluorophore-labeled antibodies before flow cytometry analysis.

[5] = test system: CTL epitope-specific tetramer+ CD8+ cells; assay: Antigen-specific T cell immune response (E7 tetramer+ CD8+ cells in peripheral blood); format: in vivo, mice
Protocol: The peptides of the present disclosure as in Example 5 were administered to mice with or without tumors and peripheral blood was collected therefrom. After removal of RBC by RBC lysis buffer, the blood was stained with the tetramer antibody (PE-conjugated HPV16 H-2Db-[…], TB-5008-1, MBL) and CD8 antibody and analyzed by flow cytometry.

[6] = test system: IFN-γ-producing cells of spleen (SPL) or tumor-draining lymph nodes (TDLNs); assay: CTL peptide-specific immune response (IFN-γ ELISpot); format: in vivo, mice
Protocol: Single-cell suspensions from the spleen (SPL) or tumor-draining lymph nodes (TDLNs) were prepared by administering the peptides of the present disclosure to mice with or without tumors in the same manner as in Example 5. A total of 1×10^6 SPL or 2.5×10^5 TDLNs cells were seeded into 96-well Filtration ELISpot plates (Merck, HAMAS4510) and stimulated with 1 μg/ml E7 CTL peptide (amino acids 49-57: […]). Cells stimulated with 10 ng/ml concanavalin A were used as a positive control. After two days of culture of SPL cells or five days of culture of TDLN cells, IFN-γ-producing cells were detected by using the mouse IFN-γ ELISpot Set (BD Bioscience, 551083) according to the manufacturer's instructions. IFN-γ-producing cells were analyzed using a CTL-ImmunoSpot Analyzer and ImmunoSpot Professional Software version 5.0 (Cellular Technology, Shaker Heights, OH, USA).

TC-1 cells [7] = assay: Antitumor effect in TLR5-knockout TC-1 tumor-bearing mice; format: in vivo
Description: (§1) Wild-type (WT), TLR5-knockout (TLR5^−/−) and NLRC4-knockout (NLRC4^−/−) mouse groups were implanted with TC-1 cells in the right mid-flank. […] The results are depicted in FIG. 25.

TC-1 cells [8] = assay: Antitumor effect in NLRC4-knockout TC-1 tumor-bearing mice; format: in vivo; details: 20 μg
Description: as §1

CD8^+ T cells = assay: Peptide-mediated CD8+ T cell activation (CFSE dilution, coculture with pulsed BMDCs); format: cell-based, mice
Protocol: CD8^+ splenocytes from TC-1 tumor-bearing mice were prepared using the MagniSort™ Mouse CD8 T Cell Enrichment kit (Invitrogen, 8804-6822) according to the manufacturer's instructions, and were labeled with 5 μM CFSE. EF- or DEF-pulsed BMDCs were cocultured with CFSE-stained CD8^+ cells at a ratio of 1:5 (BMDC:CD8^+ T cells) for 3 days in RPMI 1640 medium supplemented with 10% fetal bovine serum (HyClone, Logan, UT), 1% penicillin/streptomycin (Life Technologies, Grand Island, NY), and 50 μM 2-mercaptoethanol (Sigma, 516732). CD8^+ T cell proliferation was assessed by CFSE dilution using flow cytometry.

[9] = versus E7 Pep+F positive control

T1 sequence (O60602 21-858): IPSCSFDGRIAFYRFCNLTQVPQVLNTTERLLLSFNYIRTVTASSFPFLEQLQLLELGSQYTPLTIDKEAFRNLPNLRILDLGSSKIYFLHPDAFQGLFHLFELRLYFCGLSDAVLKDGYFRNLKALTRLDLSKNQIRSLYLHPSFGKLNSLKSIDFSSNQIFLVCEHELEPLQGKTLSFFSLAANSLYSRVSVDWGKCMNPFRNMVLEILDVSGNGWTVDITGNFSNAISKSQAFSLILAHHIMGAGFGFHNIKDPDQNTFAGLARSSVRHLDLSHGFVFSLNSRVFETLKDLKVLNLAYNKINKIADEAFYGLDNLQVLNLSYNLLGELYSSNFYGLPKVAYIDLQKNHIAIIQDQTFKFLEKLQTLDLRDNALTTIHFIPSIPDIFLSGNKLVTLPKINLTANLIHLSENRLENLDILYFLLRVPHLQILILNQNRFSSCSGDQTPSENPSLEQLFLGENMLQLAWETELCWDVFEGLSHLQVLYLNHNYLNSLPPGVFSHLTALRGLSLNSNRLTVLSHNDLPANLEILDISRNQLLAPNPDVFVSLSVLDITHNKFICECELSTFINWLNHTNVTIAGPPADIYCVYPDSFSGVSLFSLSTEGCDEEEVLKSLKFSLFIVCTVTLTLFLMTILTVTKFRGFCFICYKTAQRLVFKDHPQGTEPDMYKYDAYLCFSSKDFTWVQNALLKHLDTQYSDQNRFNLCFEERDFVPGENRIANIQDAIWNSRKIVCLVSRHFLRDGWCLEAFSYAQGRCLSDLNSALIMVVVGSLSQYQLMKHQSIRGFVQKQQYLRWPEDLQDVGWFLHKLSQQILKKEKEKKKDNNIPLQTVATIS

B1: DEF (protein)
chain: MRFFCLGPLGFTKVDIDGPAGQAEPDRAHYNIVTFCCKCDSTLRLCVQSTHVDIRTLEDLLMGTLGIVCPICSQKPEFIDGPAGQAEPDRAHYNIVTFCCKCDSTLRLCVQSTHVDIRTLEDLLMGTLGIVCPICSQKPVDIDGPAGQAEPDRAHYNIVTFCCKCDSTLRLCVQSTHVDIRTLEDLLMGTLGIVCPICSQKPVDIDGPAGQAEPDRAHYNIVTFCCKCDSTLRLCVQSTHVDIRTLEDLLMGTLGIVCPICSQKPKLMAVNVNTNVAAMTAQRYLNNANSAQQTSMERLSSGFKINSAKDDAAGLQISNRLNVQSRGLDVAVRNANDGISIAQTAEGAMNETTNILQRMRDLSLQSANGSNSKSERVAIQEEVTALNDELNRIAETTSFGGNKLLNGTYGTKAMQIGADNGEAVMLSLKDMRSDNVMMGGVSYQAEEGKDKNWNVAAGDNDLTIALTDSFGNEQEIEINAKAGDDIEELATYINGQTDLVKASVGEGGKLQIFAGNNKVQGEIAFSGSLAGELGLGEGKNVTVDTIDVTTVQGAQESVAIVDAALKYVDSHRAELGAFQNRFNHAISNLDNINENVNASKSRIKDTDFAKETTQLTKTQILSQASSSILAQAKQAPNSALSLLGLEHHHHHH
modifications: DCpep6::4xE7deltaNLS::FlaB (DEF)
NF-κB activity levels (FIG. 13) (TLR5): increased the activity in dose-dependent manners | cellular uptake in bone marrow-derived dendritic cells (FIG. 14) [1]: concentration-dependent cellular uptake | intracellular location (FIG. 15) (BMDCs or RAW264.7 cells): located in the cytoplasm of CD11c^+ cells | time to removal from the draining lymph nodes post administration [2]: ≤ 24 h | tumor volume (FIG. 19) (TC-1 cells [3]; among all administered groups): smallest | survival (FIG. 18) (TC-1 cells [3]; compared with E7ΔNLS (E)-administered group): significantly longer survival; also recorded: longest survival | survival compared with HPV16 E7 CTL peptide+FlaB (E7 Pep+F) group (FIG. 18) (TC-1 cells [3]; [9]): notably longer survival | tumor volume compared with HPV16 E7 CTL peptide+FlaB (E7 Pep+F) group (FIG. 19) (TC-1 cells [3]; [9]): remarkably much smaller | expression of CD80 and CD86 on BMDC surface (FIG. 20) [4]: significantly enhanced expression | tetramer-positive cells in peripheral blood (FIG. 22) ([5]; mice without tumors): remarkably high levels | CTL epitope-specific tetramer-positive CD8+ cells in peripheral blood (FIG. 21) ([5]; tumor-bearing mice, compared with PBS, E and EF groups): significantly higher levels | IFN-γ production (FIG. 24) ([6]; mice without tumors): significantly higher level | IFN-γ production level in SPL and TDLNs (FIG. 23) ([6]; tumor-bearing mice, compared to PBS, E and EF): significantly enhanced | survival and tumor volume effect in TLR5^−/− mice relative to wild-type mice (FIG. 25) (TC-1 cells [7]; 20 μg, TLR5^−/− versus wild-type): significantly lower levels | survival (FIG. 25) (TC-1 cells [7]; TLR5^−/− mice, 20 μg subcutaneous peritumoral three times, compared to PBS group): significantly longer survival | tumor volume (FIG. 25) (TC-1 cells [7]; TLR5^−/− mice, 20 μg, compared to PBS group): decreased | effects on tumor volume and survival (FIG. 25) (TC-1 cells [8]): abolished | division index of CD8+ T cells (FIG. 26) (CD8^+ T cells; NLRC4-knockout (NLRC4^−/−) mice, 1 μg/mL): rather decreased | division index of CD8+ T cells (FIG. 26) (CD8^+ T cells; wild-type (WT) mice BMDCs pulsed with 1 μg/mL for 24 hours, coculture 1:5 for 3 days): significantly enhanced
